According to US20170240595:
Bridges are numbered along the chain shown (N, C = ends). Where no end group is shown, it is not given here. [ ]: non-standard residue; d: D form. 1Nal = N[C@@H](Cc1cccc2ccccc12)C(=O)O; 2Nal = N[C@@H](Cc1ccc2ccccc2c1)C(=O)O; d2Nal = N[C@H](Cc1ccc2ccccc2c1)C(=O)O; hPhe = N[C@@H](CCc1ccccc1)C(=O)O; Cha = N[C@@H](CC1CCCCC1)C(=O)O; dCha = N[C@H](CC1CCCCC1)C(=O)O; dTle = CC(C)(C)[C@@H](N)C(=O)O; Nle = CCCC[C@H](N)C(=O)O; Apn = not defined here; Bal = not defined here; Ahx = NCCCCCC(=O)O; GABA = NCCCC(=O)O; βAla = NCCC(=O)O

B1: Ac-Nle-c(Cys-D-Ala-His-D-2-Nal-Arg-1-Nal-Cys)-NH2 (peptide)
chain: Ac-[Nle]C[dA]H[d2Nal]R[1Nal]C-NH2
modifications: disulfide 2-8
SMILES: CCCC[C@H](NC(C)=O)C(=O)N[C@H]1CSSC[C@@H](C(N)=O)NC(=O)[C@H](Cc2cccc3ccccc23)NC(=O)[C@H](CCCNC(=N)N)NC(=O)[C@@H](Cc2ccc3ccccc3c2)NC(=O)[C@H](Cc2c[nH]cn2)NC(=O)[C@@H](C)NC1=O
B2: Ac-Cha-c(Cys-His-D-Phe-Arg-Trp-Gaba-Cys)-NH2 (peptide)
chain: Ac-[Cha]CH[dF]RW[GABA]C-NH2
modifications: disulfide 2-8
SMILES: CC(=O)N[C@@H](CC1CCCCC1)C(=O)N[C@H]1CSSC[C@@H](C(N)=O)NC(=O)CCCNC(=O)[C@H](Cc2c[nH]c3ccccc23)NC(=O)[C@H](CCCNC(=N)N)NC(=O)[C@@H](Cc2ccccc2)NC(=O)[C@H](Cc2c[nH]cn2)NC1=O
B3: Ac-Nle-c(Asp-His-D-Phe-Arg-Trp-β-Ala-Lys)-NH2 (peptide)
chain: Ac-[Nle]DH[dF]RW[βAla]K-NH2
modifications: lactam 2-8
SMILES: CCCC[C@H](NC(C)=O)C(=O)N[C@H]1CC(=O)NCCCC[C@@H](C(N)=O)NC(=O)CCNC(=O)[C@H](Cc2c[nH]c3ccccc23)NC(=O)[C@H](CCCNC(=N)N)NC(=O)[C@@H](Cc2ccccc2)NC(=O)[C@H](Cc2c[nH]cn2)NC1=O
B4: Ac-Cha-c(Asp-His-D-2-Nal-Arg-Trp-Gaba-Lys)-NH2 (peptide)
chain: Ac-[Cha]DH[d2Nal]RW[GABA]K-NH2
modifications: lactam 2-8
SMILES: CC(=O)N[C@@H](CC1CCCCC1)C(=O)N[C@H]1CC(=O)NCCCC[C@@H](C(N)=O)NC(=O)CCCNC(=O)[C@H](Cc2c[nH]c3ccccc23)NC(=O)[C@H](CCCNC(=N)N)NC(=O)[C@@H](Cc2ccc3ccccc3c2)NC(=O)[C@H](Cc2c[nH]cn2)NC1=O
B5: Ac-Nle-c(Cys-D-Cha-His-D-Phe-Arg-Trp-Cys)-NH2 (peptide)
chain: Ac-[Nle]C[dCha]H[dF]RWC-NH2
modifications: disulfide 2-8
SMILES: CCCC[C@H](NC(C)=O)C(=O)N[C@H]1CSSC[C@@H](C(N)=O)NC(=O)[C@H](Cc2c[nH]c3ccccc23)NC(=O)[C@H](CCCNC(=N)N)NC(=O)[C@@H](Cc2ccccc2)NC(=O)[C@H](Cc2c[nH]cn2)NC(=O)[C@@H](CC2CCCCC2)NC1=O
B6: Ac-Nle-c(Cys-His-D-Phe-Arg-Trp-Ahx-Cys)-NH2 (peptide)
chain: Ac-[Nle]CH[dF]RW[Ahx]C-NH2
modifications: disulfide 2-8
SMILES: CCCC[C@H](NC(C)=O)C(=O)N[C@H]1CSSC[C@@H](C(N)=O)NC(=O)CCCCCNC(=O)[C@H](Cc2c[nH]c3ccccc23)NC(=O)[C@H](CCCNC(=N)N)NC(=O)[C@@H](Cc2ccccc2)NC(=O)[C@H](Cc2c[nH]cn2)NC1=O
B7: Ac-Nle-c(Cys-D-Ala-His-D-2-Nal-Arg-2-Nal-Cys)-NH2 (peptide)
chain: Ac-[Nle]C[dA]H[d2Nal]R[2Nal]C-NH2
modifications: disulfide 2-8
SMILES: CCCC[C@H](NC(C)=O)C(=O)N[C@H]1CSSC[C@@H](C(N)=O)NC(=O)[C@H](Cc2ccc3ccccc3c2)NC(=O)[C@H](CCCNC(=N)N)NC(=O)[C@@H](Cc2ccc3ccccc3c2)NC(=O)[C@H](Cc2c[nH]cn2)NC(=O)[C@@H](C)NC1=O
B8: Ac-2-Nal-c(Cys-His-D-Phe-Arg-Trp-Gaba-Cys)-NH2 (peptide)
chain: Ac-[2Nal]CH[dF]RW[GABA]C-NH2
modifications: disulfide 2-8
SMILES: CC(=O)N[C@@H](Cc1ccc2ccccc2c1)C(=O)N[C@H]1CSSC[C@@H](C(N)=O)NC(=O)CCCNC(=O)[C@H](Cc2c[nH]c3ccccc23)NC(=O)[C@H](CCCNC(=N)N)NC(=O)[C@@H](Cc2ccccc2)NC(=O)[C@H](Cc2c[nH]cn2)NC1=O
B9: Ac-Nle-c(Cys-D-Leu-His-D-Phe-Arg-Trp-Cys)-NH2 (peptide)
chain: Ac-[Nle]C[dL]H[dF]RWC-NH2
modifications: disulfide 2-8
SMILES: CCCC[C@H](NC(C)=O)C(=O)N[C@H]1CSSC[C@@H](C(N)=O)NC(=O)[C@H](Cc2c[nH]c3ccccc23)NC(=O)[C@H](CCCNC(=N)N)NC(=O)[C@@H](Cc2ccccc2)NC(=O)[C@H](Cc2c[nH]cn2)NC(=O)[C@@H](CC(C)C)NC1=O
B10: Ac-c(Cys-D-Ala-His-D-Phe-Arg-2-Nal-Ala-Cys)-NH2 (peptide)
chain: Ac-C[dA]H[dF]R[2Nal]AC-NH2
modifications: disulfide 1-8
SMILES: CC(=O)N[C@H]1CSSC[C@@H](C(N)=O)NC(=O)[C@H](C)NC(=O)[C@H](Cc2ccc3ccccc3c2)NC(=O)[C@H](CCCNC(=N)N)NC(=O)[C@@H](Cc2ccccc2)NC(=O)[C@H](Cc2c[nH]cn2)NC(=O)[C@@H](C)NC1=O

molecular target: hMC4-R (human), P32245; experiment: competition; conditions: modification not given
Sequence (P32245 whole entry): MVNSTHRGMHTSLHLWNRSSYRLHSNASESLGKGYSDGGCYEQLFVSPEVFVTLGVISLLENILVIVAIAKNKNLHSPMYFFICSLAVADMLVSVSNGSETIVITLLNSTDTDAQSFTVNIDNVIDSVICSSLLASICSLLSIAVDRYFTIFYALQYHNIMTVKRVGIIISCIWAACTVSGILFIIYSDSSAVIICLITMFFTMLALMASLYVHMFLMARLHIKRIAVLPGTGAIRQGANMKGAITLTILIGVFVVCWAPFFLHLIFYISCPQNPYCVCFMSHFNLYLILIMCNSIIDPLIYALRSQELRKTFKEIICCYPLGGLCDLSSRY

Ki [nM]	Binder
3.07	B1
0.884	B2
0.998	Ac-[Nle]CH[d2Nal]RW[Ahx]C-NH2 (disulfide 2-8) [Ac-Nle-c(Cys-His-D-2-Nal-Arg-Trp-Ahx-Cys)-NH2]
16.6	Ac-[Nle]C[dA]H[d2Nal]R[Bal]C-NH2 (disulfide 2-8; reading uncertain) [Ac-Nle-c(Cys-D-Ala-His-D-2-Nal-Arg-Bal-Cys)-NH2]
0.617	B3
11.1	Ac-[Nle]DH[dF]RW[Apn]K-NH2 (lactam 2-8; reading uncertain) [Ac-Nle-c(Asp-His-D-Phe-Arg-Trp-Apn-Lys)-NH2]
2.82	B4
0.47	[Nle]CH[dF]RW[GABA]C-NH2 (disulfide 2-8) [Nle-c(Cys-His-D-Phe-Arg-Trp-Gaba-Cys)-NH2]
3.37	Ac-[hPhe]DH[dF]RW[GABA]K-NH2 (lactam 2-8) [Ac-hPhe-c(Asp-His-D-Phe-Arg-Trp-Gaba-Lys)-NH2]
11.2	Ac-[Nle]C[dTle]H[dF]RWC-NH2 (disulfide 2-8) [Ac-Nle-c(Cys-D-Tle-His-D-Phe-Arg-Trp-Cys)-NH2]
1.41	B5
0.85	[Nle]CH[dF]RW[Apn]C-NH2 (disulfide 2-8; reading uncertain) [Nle-c(Cys-His-D-Phe-Arg-Trp-Apn-Cys)-NH2]
1.04	Ac-[Nle]DH[dF]RW[GABA]K-NH2 (lactam 2-8) [Ac-Nle-c(Asp-His-D-Phe-Arg-Trp-Gaba-Lys)-NH2]
0.375	Ac-[Nle]CH[d2Nal]RW[GABA]C-NH2 (disulfide 2-8) [Ac-Nle-c(Cys-His-D-2-Nal-Arg-Trp-Gaba-Cys)-NH2]
1.23	B6
9	Ac-[Nle]C[dI]H[dF]RWC-NH2 (disulfide 2-8) [Ac-Nle-c(Cys-D-Ile-His-D-Phe-Arg-Trp-Cys)-NH2]
2.53	B7
2.94	B8
4.13	B9
40.7	B10
0.931	Ac-[hPhe]DH[d2Nal]RW[GABA]K-NH2 (lactam 2-8) [Ac-hPhe-c(Asp-His-D-2-Nal-Arg-Trp-Gaba-Lys)-NH2]
0.894	Ac-[Nle]CH[dF]RW[Apn]C-NH2 (disulfide 2-8; reading uncertain) [Ac-Nle-c(Cys-His-D-Phe-Arg-Trp-Apn-Cys)-NH2]
10.1	Ac-[Nle]C[dV]H[dF]RWC-NH2 (disulfide 2-8) [Ac-Nle-c(Cys-D-Val-His-D-Phe-Arg-Trp-Cys)-NH2]
